From article PMC3946054 (Structure (London, England : 1993), 2013)
Like-named read-outs stand apart in the source and are kept apart here.

Columns and labels:
[1] = biological target: T1, SCaMC-1 transmembrane domain (TMD), residues 185-477, incorporated in POPC/POPG/cardiolipin liposomes (human, UniProt Q6NUK1 185-477); experiment: SPR
T1 sequence (looked up): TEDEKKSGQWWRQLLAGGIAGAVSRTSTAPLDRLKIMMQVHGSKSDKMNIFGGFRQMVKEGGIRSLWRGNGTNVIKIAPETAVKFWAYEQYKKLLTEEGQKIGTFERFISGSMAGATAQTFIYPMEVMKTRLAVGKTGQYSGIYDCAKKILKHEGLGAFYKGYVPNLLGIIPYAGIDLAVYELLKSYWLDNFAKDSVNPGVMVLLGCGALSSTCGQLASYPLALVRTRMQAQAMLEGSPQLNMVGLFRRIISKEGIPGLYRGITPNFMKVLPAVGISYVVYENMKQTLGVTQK

[2] = biological target: T1, SCaMC-1 transmembrane domain (TMD), …; experiment: SPR; remark: listed apart in the source

B1: Human SCaMC-1 N-terminal domain (NTD), residues 1-193 (domain or fragment, UniProt Q6NUK1 1-193, looked up)
chain: MLRWLRDFVLPTAACQDAEQPTRYETLFQALDRNGDGVVDIGELQEGLRNLGIPLGQDAEEKIFTTGDVNKDGKLDFEEFMKYLKDHEKKMKLAFKSLDKNNDGKIEASEIVQSLQTLGLTISEQQAELILQSIDVDGTMTVDWNEWRDYFLFNPVTDIEEIIRFWKHSTGIDIGDSLTIPDEFTEDEKKSGQ
- Kd [1]: 250 µM
- Kd [2]: 5.6 mM
